Target: monomeric actin (CaATP-G-actin) from rabbit muscle, unlabelled (rabbit, UniProt P68135 1-377)
Experiment: cell-based or functional assay

## VCPEGARVFNQITVQKAALEDSNG [Eps8 isolated predicted helix H5 (residues 765–788)]
  Kd from inhibition of barbed end growth (spectrin-actin seeds): 40 µM
  Kd from inhibition of pointed end growth (gelsolin-actin seeds): 32 µM

Source: publication PMC2879411, “Molecular Basis for the Dual Function of Eps8 on Actin Dynamics: Bundling and Capping” (PLoS Biology, 2010)
